The text below walks through data of PMC2807882, “Conservation of DNA-binding specificity and oligomerisation properties within the p53 family”.

For one data set, the target named is Xlp53 (Xenopus laevis, UniProt Q7T1D0 1-362). The data set can be described thus: anisotropy competition; 25 mM NaPi, 225 mM NaCl, 10% v/v glycerol, 5 mM DTT, 0.2 mg/mL BSA, 22°C; 20 nM labelled DNA; pH not stated for the binding assay. Particulars: protein: recombinant; tags: N-terminal 6xHis-lipoyl-TEV tag, cleaved; chain copies: 4.
Data set [1] addresses T1, Dmp53 (Drosophila melanogaster, UniProt Q9N6D8 1-385).
T1 sequence: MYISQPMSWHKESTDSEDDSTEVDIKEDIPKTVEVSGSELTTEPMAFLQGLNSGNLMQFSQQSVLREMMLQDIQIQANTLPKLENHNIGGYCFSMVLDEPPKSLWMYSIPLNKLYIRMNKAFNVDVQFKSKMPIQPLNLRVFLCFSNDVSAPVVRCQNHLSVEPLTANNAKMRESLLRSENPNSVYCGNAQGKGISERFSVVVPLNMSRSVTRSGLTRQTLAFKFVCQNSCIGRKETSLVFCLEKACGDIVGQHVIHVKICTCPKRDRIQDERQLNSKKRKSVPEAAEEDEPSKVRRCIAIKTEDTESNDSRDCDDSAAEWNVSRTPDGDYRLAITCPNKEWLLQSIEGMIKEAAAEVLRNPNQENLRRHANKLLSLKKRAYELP
The data set can be described thus: fluorescence anisotropy competition titration; 25 mM sodium phosphate (purification buffer pH 7.2), 225 mM NaCl, 10% v/v glycerol, 5 mM DTT, 0.2 mg/mL BSA, 22 C. Particulars: protein: recombinant; tags: N-terminal 6xHis-lipoyl-TEV tag, cleaved; chain copies: 4.

The next data set deals with T2, ΔNp73β (Homo sapiens, UniProt O15350-9 1-450).
T2 sequence: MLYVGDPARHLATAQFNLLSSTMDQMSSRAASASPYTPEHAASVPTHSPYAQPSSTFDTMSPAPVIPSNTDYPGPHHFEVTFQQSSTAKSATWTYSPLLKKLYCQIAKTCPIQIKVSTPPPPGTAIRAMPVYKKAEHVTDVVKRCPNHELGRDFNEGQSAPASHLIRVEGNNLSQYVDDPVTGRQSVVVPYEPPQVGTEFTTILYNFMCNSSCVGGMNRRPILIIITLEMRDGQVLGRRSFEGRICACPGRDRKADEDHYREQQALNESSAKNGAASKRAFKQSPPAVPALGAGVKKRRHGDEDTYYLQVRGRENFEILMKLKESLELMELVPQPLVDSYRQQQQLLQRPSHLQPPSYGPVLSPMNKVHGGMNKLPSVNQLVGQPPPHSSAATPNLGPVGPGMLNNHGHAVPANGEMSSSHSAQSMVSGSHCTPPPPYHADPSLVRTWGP
The data set is described as above. Particulars: protein: recombinant; tags: N-terminal 6xHis-lipoyl-TEV tag, cleaved; chain copies: 4.

For another data set, the target named is Hsp53 (Homo sapiens, UniProt P04637 1-393). Briefly: fluorescence anisotropy direct titration; 25 mM sodium phosphate (purification buffer pH 7.2), 225 mM NaCl, 10% v/v glycerol, 5 mM DTT, 0.2 mg/mL BSA, 22 C. The following applies: protein: recombinant; tags: N-terminal 6xHis-lipoyl-TEV tag, cleaved; chain copies: 4; label: 5'-Alexa488.
The target in another data set is T3, ΔNp63γ (Homo sapiens, UniProt Q9H3D4-6 1-393).
T3 sequence: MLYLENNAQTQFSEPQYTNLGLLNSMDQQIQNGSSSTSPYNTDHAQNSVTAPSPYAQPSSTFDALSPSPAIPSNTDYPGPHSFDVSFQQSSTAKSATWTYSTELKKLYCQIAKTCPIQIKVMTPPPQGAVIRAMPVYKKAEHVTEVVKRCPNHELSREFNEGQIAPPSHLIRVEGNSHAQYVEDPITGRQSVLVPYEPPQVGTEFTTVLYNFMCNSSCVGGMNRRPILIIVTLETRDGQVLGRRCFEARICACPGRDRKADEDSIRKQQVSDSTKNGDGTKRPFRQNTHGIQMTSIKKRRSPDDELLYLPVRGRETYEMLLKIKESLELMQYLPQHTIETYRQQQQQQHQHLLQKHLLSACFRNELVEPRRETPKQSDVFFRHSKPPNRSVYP
Described as above. The following applies: protein: recombinant; tags: N-terminal 6xHis-lipoyl-TEV tag, cleaved; chain copies: 4; label: 5'-Alexa488.

In a further data set the target is Mmp53 (Mus musculus, UniProt P02340 1-390). The description is as above. The following applies: protein: recombinant; tags: N-terminal 6xHis-lipoyl-TEV tag, cleaved; chain copies: 4; label: 5'-Alexa488.
Another data set addresses T4, p73CT (Homo sapiens, UniProt O15350 104-383).
T4 sequence: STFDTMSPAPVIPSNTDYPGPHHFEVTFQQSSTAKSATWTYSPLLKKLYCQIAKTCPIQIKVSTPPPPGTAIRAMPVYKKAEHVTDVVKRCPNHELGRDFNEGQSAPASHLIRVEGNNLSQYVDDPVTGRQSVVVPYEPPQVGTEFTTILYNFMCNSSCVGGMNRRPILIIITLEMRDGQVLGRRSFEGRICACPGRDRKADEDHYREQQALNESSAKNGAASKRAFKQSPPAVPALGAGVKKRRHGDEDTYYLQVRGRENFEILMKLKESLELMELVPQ
Described as above. The following applies: protein: recombinant; tags: N-terminal 6xHis-lipoyl-TEV tag, cleaved; chain copies: 4; label: 5'-Alexa488.

For data set [2], the target named is T1, Dmp53. Described as above. Particulars: protein: recombinant; tags: N-terminal 6xHis-lipoyl-TEV tag, cleaved; chain copies: 4; label: 5'-Alexa488.

A word on the Kd: it is a measure of binding affinity in units of concentration.

Mmp53, sequence (P02340 whole entry): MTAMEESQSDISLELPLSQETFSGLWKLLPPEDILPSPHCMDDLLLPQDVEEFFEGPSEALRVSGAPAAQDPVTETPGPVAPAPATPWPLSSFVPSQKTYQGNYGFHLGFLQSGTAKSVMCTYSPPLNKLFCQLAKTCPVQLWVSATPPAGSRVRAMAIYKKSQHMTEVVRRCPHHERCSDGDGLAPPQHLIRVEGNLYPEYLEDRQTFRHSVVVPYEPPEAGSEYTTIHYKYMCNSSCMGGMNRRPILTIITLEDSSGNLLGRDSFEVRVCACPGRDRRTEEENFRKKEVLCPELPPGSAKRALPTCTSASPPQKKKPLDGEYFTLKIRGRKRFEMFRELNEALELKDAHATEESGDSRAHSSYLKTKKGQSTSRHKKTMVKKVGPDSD
Hsp53, sequence (P04637 whole entry): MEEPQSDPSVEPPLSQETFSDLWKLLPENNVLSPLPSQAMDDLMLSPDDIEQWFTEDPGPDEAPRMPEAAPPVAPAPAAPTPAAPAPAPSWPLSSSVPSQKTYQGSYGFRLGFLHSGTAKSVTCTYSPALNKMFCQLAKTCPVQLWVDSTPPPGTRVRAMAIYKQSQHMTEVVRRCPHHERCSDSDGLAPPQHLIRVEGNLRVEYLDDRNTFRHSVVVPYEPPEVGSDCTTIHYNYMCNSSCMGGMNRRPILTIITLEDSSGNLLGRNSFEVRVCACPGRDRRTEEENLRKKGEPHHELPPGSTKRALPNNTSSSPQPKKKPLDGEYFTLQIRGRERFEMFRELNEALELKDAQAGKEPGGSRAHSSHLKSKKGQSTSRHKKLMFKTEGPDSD
Xlp53, sequence (Q7T1D0 entry or part of it): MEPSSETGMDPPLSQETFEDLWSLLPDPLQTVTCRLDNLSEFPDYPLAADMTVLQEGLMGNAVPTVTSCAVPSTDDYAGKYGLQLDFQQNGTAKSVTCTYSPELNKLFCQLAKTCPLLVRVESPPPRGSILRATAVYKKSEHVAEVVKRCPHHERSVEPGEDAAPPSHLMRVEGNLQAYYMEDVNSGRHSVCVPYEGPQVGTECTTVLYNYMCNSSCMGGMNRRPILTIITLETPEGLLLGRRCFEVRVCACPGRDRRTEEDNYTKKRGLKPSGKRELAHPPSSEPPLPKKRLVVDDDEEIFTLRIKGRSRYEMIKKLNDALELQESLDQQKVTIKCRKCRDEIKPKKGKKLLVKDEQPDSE

B1: Ref competitor (dsDNA)
DNA 1: CGCGGACATGTCCGGACATGTCCCGC
DNA 2: GCGGGACATGTCCGGACATGTCCGCG
B1: the Kd with Xlp53 was -7.08 log10(M); with Dmp53 [1], 0.0275 µM; with ΔNp73β it was 0.024 µM.

B2: Ref_Alexa488 (dsDNA)
DNA 1: GGACATGTCCGGACATGTCC
DNA 2: GGACATGTCCGGACATGTCC
B2: the Kd with Hsp53 is 0.0562 µM; in the data set with ΔNp63γ, 0.0676 µM; in the data set with Mmp53, 0.0955 µM; with p73CT, 0.24 µM; with Dmp53 [2], 0.0525 µM.
